Our source for the Kd values is PMC7332060, “Characterizing the actin-binding ability of Zasp52 and its contribution to myofibril assembly” (PLoS ONE, 2020).

B2: GST-Zasp52-PK (natural protein)
chain: MAQPQLLQIKLSRFDAQPWGFRLQGGTDFAQPLLVQKVNAGSLSEQAGLQPGDAVVKINDVDVFNLRHKDAQDIVVRSGNNFVITVQRGGSTWRPHVTPTGNVPQPNSPYLQTVTKTSLAHKQQDSQHIGCGYNNAARPFSNGGDGGVKSIVNKQYNTPVGIYSDESIAETLSAQAEVLAGGVLGVNFKKNEKEYQGDRSEVLKFLREEETGQSTPAFGNSHYEHDAPQQLQQPQQQYNQHQQHYHQQQQQQQSSTTRHVSAPVNSPKPPSTGGLPTGQNICTECERLITGVFVRIKDKNLHVECFKCATCGTSLKNQGYYNFNNKLYCDIHAKQAAINNPPTGTEGYVPVPIKPNTKLSASTISSALNSHGYGGHSNGYSNGNSTPAPAPV

The target of the assay “GST-Zasp52-PK” is B2. The experiment in a line: SPR; surface plasmon resonance imaging (PlexArray HT); GST-Zasp52-PK printed on gold-coated chip; G-actin or α-actinin injected; PBST running buffer; 25°C; kinetic analysis with BIAevaluation 4.1. The settings on record: both partners purified. (In general: SPR reads the build-up and loss of mass on a sensor chip optically.)
The target in assay [1] is G-actin (Cytoskeleton AKL-99) (UniProt P68135 1-377). The description is as above. The settings on record: both partners purified.

B1: α-actinin (Cytoskeleton AT-01) (natural protein)
chain: MNQIEPGVQYNYVYDEDEYMIQEEEWDRDLLLDPAWEKQQRKTFTAWCNSHLRKAGTQIENIEEDFRNGLKLMLLLEVISGERLPKPDRGKMRFHKIANVNKALDYIASKGVKLVSIGAEEIVDGNVKMTLGMIWTIILRFAIQDISVEETSAKEGLLLWCQRKTAPYRNVNIQNFHTSWKDGLGLCALIHRHRPDLIDYSKLNKDDPIGNINLAMEIAEKHLDIPKMLDAEDIVNTPKPDERAIMTYVSCFYHAFAGAEQAETAANRICKVLAVNQENERLMEEYERLASELLEWIRRTIPWLENRTPEKTMKAMQKKLEDFRDYRRKHKPPKVQEKCQLEINFNTLQTKLRISNRPAFMPSEGKMVSDAGAWQRLEQAEKGYEEWLLNEIRRLERLEHLAEKFRQKASTHETWAYGKEQILLQKDYESASLTEVRALLRKHEAFESDLAAHQDRVEQIAAIAQELNELDYHDAVNVNDRCQKICDQWDRLGTLTQKRREALERTEKLLETIDQLHLEFAKRAAPFNNWMEGAMEDLQDMFIVHSIEEIQSLITAHEQFKATLPEADGERQSIMAIQNEVEKVIQSYNIRISSSNPYSTVTMDELRAKWDKVKQLVPIRDQSLQEELARQHANERLRRQFAAQANAIGPWIQNKMEEIARSSIQITGALEDQMNQLKQYEHNIINYKNNIDKLEGDHQLIQEALVFDNKHTNYTMEHIRVGWELLLTTIARTINEVETQILTRDAKGITQEQMNEFRASFNHFDRRKNGLMDHEDFRACLISMGYDLGEAEFARIMTLVDPNGQGTVTFQSFIDFMTRETADTDTAEQVIASFRILASDKPYILAEELRRELPPDQAQYCIKRMPAYSGPGSVPGALDYTAFSSALYGESDL
Turning to B1, the Kd (usually the constant that tells how readily two partners part at equilibrium) in the assay with GST-Zasp52-PK was determined as 86.5 nM. B2 showed a dissociation constant (Kd) in assay [1] of 1100 nM.
